The numbers were not newly measured in article PMC9528458, which cites them from elsewhere.

For the data set, the target named is Axin DAX (Homo sapiens) (UniProt O15169).
Chain of Axin DAX (Homo sapiens) (O15169 780-862): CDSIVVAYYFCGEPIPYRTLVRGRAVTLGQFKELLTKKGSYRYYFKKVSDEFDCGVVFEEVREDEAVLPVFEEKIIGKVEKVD

Chain of Dishevelled DIX (O14641 8-96): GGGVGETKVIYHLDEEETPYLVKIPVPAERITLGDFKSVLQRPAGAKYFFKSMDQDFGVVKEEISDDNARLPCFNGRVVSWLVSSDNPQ

As a reminder, the Kd is the concentration at which binding is half-saturated. Regarding Dishevelled DIX (from UniProt O14641), the Kd was 15 µM.
